Test results as given in patent CN110964111A (BEIJING DONGFANG BIOTECH CO LTD, dated 2020).

Biological target: PD-L1 (UniProt Q9NZQ7 19-238, limits assumed)
Assay: cell-based or functional assay

Sequence of PD-L1 (Q9NZQ7 19-238 limits assumed): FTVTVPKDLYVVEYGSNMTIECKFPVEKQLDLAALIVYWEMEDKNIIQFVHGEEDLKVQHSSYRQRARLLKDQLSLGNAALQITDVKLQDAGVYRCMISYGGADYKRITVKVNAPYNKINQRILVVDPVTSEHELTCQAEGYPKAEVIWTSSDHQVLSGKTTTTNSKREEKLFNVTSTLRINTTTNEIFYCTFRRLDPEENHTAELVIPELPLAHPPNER

Row | Binder | EC50, CD4+ T细胞增殖 (混合淋巴细胞反应 MLR, cck8)
1 | BH2-B11 全抗体 (full antibody, human IgG1/kappa) (antibody, V domains shown) VH: EVQLVESGGGLVQPGGSLRLSCAASGLTWSDSYKHWVRQAPGKGLEWVHWNSTYGGSTYYADSVKGRFTISADTSKNTAYLQMNSLRAEDTAVYYCARRHFASTWDYWGQGTLVTVSS VL: DIQMTQSPSSLSASVGDRVTITCRASQNIHNSLAWYQQKPGKAPKLLIYGASSLESGVPSRFSGSGSGTDFTLTISSLQPEDFATYYCQQERRVPWTFGQGTKVEIKR | 6.73 ng/mL
2 | AH10-B11 全抗体 (full antibody, human IgG1/kappa) (antibody, V domains shown) VH: EVQLVESGGGLVQPGGSLRLSCAASGWTLSDSLQHWVRQAPGKGLEWVGFQSAYGGSTYYADSVKGRFTISADTSKNTAYLQMNSLRAEDTAVYYCARRHYYTAWDYWGQGTLVTVSS VL: DIQMTQSPSSLSASVGDRVTITCRASQNIHNSLAWYQQKPGKAPKLLIYGASSLESGVPSRFSGSGSGTDFTLTISSLQPEDFATYYCQQERRVPWTFGQGTKVEIKR | 9.88 ng/mL

Now from value to binder:

Row | EC50, CD4+ T细胞增殖 (混合淋巴细胞反应 MLR, cck8) | Binder
3 | 11.4 ng/mL | AH10-E3 全抗体 (full antibody, human IgG1/kappa) (antibody, V domains shown) VH: EVQLVESGGGLVQPGGSLRLSCAASGWTLSDSLQHWVRQAPGKGLEWVGFQSAYGGSTYYADSVKGRFTISADTSKNTAYLQMNSLRAEDTAVYYCARRHYYTAWDYWGQGTLVTVSS VL: DIQMTQSPSSLSASVGDRVTITCRASQSIHNYLAWYQQKPGKAPKLLIYSASNLPSGVPSRFSGSGSGTDFTLTISSLQPEDFATYYCQQGLHTPPTFGQGTKVEIKR
4 | 11.9 ng/mL | AC9-E3 全抗体 (full antibody, human IgG1/kappa) (antibody, V domains shown) VH: EVQLVESGGGLVQPGGSLRLSCAASGCTWSDSWDHWVRQAPGKGLEWVDYESTYGGSTYYADSVKGRFTISADTSKNTAYLQMNSLRAEDTAVYYCARRHWNATFDYWGQGTLVTVSS VL: DIQMTQSPSSLSASVGDRVTITCRASQSIHNYLAWYQQKPGKAPKLLIYSASNLPSGVPSRFSGSGSGTDFTLTISSLQPEDFATYYCQQGLHTPPTFGQGTKVEIKR
5 | 7.58 ng/mL | AC9-B11 全抗体 (full antibody, human IgG1/kappa) (antibody, V domains shown) VH: EVQLVESGGGLVQPGGSLRLSCAASGCTWSDSWDHWVRQAPGKGLEWVDYESTYGGSTYYADSVKGRFTISADTSKNTAYLQMNSLRAEDTAVYYCARRHWNATFDYWGQGTLVTVSS VL: DIQMTQSPSSLSASVGDRVTITCRASQNIHNSLAWYQQKPGKAPKLLIYGASSLESGVPSRFSGSGSGTDFTLTISSLQPEDFATYYCQQERRVPWTFGQGTKVEIKR
6 | 7.71 ng/mL | BH2-E3 全抗体 (full antibody, human IgG1/kappa) (antibody, V domains shown) VH: EVQLVESGGGLVQPGGSLRLSCAASGLTWSDSYKHWVRQAPGKGLEWVHWNSTYGGSTYYADSVKGRFTISADTSKNTAYLQMNSLRAEDTAVYYCARRHFASTWDYWGQGTLVTVSS VL: DIQMTQSPSSLSASVGDRVTITCRASQSIHNYLAWYQQKPGKAPKLLIYSASNLPSGVPSRFSGSGSGTDFTLTISSLQPEDFATYYCQQGLHTPPTFGQGTKVEIKR
